Test results published in PMC11548879.

How the values were obtained:
[1] = test system: HpARI1 (Heligmosomoides polygyrus bakeri); experiment: EMSA; conditions: pH 7.5, 30 min, room temperature
[2] = target: IL-33 (mouse) (mouse (endogenous in BALB/c mice and CMT-64 cells)) (UniProt Q8BVZ5)
Chain of UniProt Q8BVZ5 (Q8BVZ5 whole entry): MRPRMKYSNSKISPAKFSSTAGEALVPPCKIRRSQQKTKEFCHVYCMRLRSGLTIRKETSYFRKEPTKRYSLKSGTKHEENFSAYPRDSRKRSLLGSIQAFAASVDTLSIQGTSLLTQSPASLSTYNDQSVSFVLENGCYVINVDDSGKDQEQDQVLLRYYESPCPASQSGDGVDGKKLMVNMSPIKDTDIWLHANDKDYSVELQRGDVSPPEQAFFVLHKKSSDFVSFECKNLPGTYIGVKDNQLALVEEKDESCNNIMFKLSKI

Row | Substance | IC50 of suppression of IL-5 production from bone marrow cells (IL-2, IL-7, freeze-thawed CMT-64 supernatants; IL-33-mediated ILC2 activation) [2] | EC50 of amplification of IL-5 production from bone marrow cells (IL-2, IL-7, freeze-thawed CMT-64 supernatants; IL-33-mediated ILC2 activation) [2] | also measured
1 | AACTTTGCCATTGTGGAAGG / CCTTCCACAATGCCAAAGTT [IR700 EMSA oligonucleotide probe] | – | – | binding signal [1]: 50 % DNA bound
2 | HpARI2 (natural protein) | 1.9 ng/mL | – | –
3 | HpARI2:3 fusion protein (CCP1 domain of HpARI2 fused to the CCP2+3 domains of HpARI3) | – | 21.5 ng/mL | –
4 | HpARI3 (natural protein) | – | 1.2 ng/mL | –
5 | HpARI3:2 fusion protein (CCP1 domain of HpARI3 fused to the CCP2+3 domains of HpARI2) | 1.1 ng/mL | – | –
